From PMC5452015, “Sen1 has unique structural features grafted on the architecture of the Upf1‐like helicase family” (The EMBO Journal, 2017)

How the values were obtained:
[1] = target: T1, Sen1Hel (crystal construct, loop 1,471-1,538 removed) (Saccharomyces cerevisiae, UniProt Q00416, DEL1471-1538); assay: X-ray crystal structure, […] A; format: binding; conditions: 10-fold molar excess ADP, HEPES pH 7.5, 4 C; nucleotide site on RecA1, no RNA
T1 construct: gene SEN1; helicase core 1095-1904 with disordered loop 1471-1538 replaced by a (Gly-Ser)2 linker; C-terminal CPD-His8 tag cut off with 3C; expressed in E. coli; model covers 1096-1875
T1 sequence (Q00416 with tags, fused parts or gaps DEL1471-1538): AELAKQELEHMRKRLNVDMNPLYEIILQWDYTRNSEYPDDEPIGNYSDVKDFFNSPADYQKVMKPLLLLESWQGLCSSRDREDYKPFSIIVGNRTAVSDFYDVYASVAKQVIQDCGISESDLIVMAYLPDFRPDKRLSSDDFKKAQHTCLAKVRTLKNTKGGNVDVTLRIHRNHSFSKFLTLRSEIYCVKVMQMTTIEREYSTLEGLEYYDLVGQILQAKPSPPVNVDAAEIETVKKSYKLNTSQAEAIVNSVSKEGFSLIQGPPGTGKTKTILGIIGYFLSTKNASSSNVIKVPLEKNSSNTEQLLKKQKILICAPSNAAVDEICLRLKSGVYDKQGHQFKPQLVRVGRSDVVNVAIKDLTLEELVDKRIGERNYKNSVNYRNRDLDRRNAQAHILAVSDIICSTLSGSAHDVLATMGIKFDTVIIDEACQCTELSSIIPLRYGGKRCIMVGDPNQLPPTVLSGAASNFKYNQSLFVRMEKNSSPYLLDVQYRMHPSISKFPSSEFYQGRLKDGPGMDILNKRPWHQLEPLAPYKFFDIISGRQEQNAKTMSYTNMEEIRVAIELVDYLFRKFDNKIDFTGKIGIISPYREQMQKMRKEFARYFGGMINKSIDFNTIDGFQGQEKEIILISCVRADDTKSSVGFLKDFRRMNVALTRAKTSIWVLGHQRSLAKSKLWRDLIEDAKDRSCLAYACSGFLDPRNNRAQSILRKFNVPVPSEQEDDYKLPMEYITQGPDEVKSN

Sen1Hel = target: T2, Sen1Hel (Saccharomyces cerevisiae, UniProt Q00416); assay: ATP hydrolysis, alpha-32P-ATP, thin-layer chromatography; format: biochemical; conditions: polyU 50 ng/ul, 250 uM ATP, 1 mM MgCl2, pH 7.5, 28 C
T2 construct: gene SEN1; helicase core 1095-1904, ~90 kDa; C-terminal CPD-His8 tag cut off with 3C protease; expressed in E. coli BL21 (DE3) STAR pRARE
T2 sequence (Q00416 1095-1904): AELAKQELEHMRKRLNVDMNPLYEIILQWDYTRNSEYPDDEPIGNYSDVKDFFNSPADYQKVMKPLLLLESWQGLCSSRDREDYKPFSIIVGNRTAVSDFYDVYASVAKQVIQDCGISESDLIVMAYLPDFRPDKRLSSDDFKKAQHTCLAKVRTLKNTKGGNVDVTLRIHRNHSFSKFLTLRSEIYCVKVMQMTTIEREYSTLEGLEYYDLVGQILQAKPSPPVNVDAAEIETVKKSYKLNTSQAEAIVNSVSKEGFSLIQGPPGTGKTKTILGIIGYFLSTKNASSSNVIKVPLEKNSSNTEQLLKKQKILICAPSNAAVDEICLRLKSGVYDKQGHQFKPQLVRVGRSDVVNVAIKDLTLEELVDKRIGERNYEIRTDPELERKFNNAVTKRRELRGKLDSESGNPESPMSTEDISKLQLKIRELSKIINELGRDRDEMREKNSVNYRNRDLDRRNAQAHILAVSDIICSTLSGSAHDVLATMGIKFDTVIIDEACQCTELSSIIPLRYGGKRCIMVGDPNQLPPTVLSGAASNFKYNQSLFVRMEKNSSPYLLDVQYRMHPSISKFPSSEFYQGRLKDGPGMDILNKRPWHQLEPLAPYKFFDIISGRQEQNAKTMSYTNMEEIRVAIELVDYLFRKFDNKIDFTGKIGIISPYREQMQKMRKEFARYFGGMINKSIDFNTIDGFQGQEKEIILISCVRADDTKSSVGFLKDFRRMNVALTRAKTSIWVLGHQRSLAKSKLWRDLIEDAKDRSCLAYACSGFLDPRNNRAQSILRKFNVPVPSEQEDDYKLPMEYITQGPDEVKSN

Sen1Hel (wild type) [2] = target: T3, Sen1Hel (wild type) (Saccharomyces cerevisiae, UniProt Q00416 1095-1904); assay: EMSA; high-order complexes at high protein; FA: 20 mM Hepes pH 7.5, 300 mM NaCl, 2 mM MgCl2, 1 mM DTT, 20 C, 10 nM RNA; EMSA: 2 nM RNA, 10-160 nM protein (buffer not in the material); conditions: protein: recombinant; tags: C-terminal CPD-His8 removed by 3C; label: 5' fluorescent label
T3 sequence: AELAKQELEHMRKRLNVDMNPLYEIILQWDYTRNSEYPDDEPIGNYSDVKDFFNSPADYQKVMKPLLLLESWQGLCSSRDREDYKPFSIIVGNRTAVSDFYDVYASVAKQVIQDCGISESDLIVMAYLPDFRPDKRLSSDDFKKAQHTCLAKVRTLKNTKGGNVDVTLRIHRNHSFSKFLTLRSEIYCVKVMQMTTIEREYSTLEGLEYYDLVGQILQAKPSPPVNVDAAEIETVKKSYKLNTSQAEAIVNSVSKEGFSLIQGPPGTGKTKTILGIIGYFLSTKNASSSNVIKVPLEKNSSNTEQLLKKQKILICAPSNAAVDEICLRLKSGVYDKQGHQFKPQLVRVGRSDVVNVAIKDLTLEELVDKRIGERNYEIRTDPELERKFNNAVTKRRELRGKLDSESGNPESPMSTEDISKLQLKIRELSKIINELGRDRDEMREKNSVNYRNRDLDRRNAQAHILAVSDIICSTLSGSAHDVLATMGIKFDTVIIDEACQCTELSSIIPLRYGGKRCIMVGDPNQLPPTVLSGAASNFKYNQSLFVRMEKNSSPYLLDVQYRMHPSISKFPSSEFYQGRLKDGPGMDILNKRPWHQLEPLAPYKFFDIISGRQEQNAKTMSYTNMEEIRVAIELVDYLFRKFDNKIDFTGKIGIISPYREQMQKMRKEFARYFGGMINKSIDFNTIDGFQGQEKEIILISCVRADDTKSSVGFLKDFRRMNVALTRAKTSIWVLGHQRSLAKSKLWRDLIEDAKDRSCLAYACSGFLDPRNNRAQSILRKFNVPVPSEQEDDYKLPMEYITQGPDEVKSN

Sen1Hel deltaLP = target: T4, Sen1Hel deltaLP (Saccharomyces cerevisiae, UniProt Q00416 1095-1904, del1461-1554); assay: EMSA; FA: 20 mM Hepes pH 7.5, 300 mM NaCl, 2 mM MgCl2, 1 mM DTT, 20 C, 10 nM RNA; EMSA: 2 nM RNA, 10-160 nM protein (buffer not in the material); conditions: protein: recombinant; tags: C-terminal CPD-His8 removed by 3C; label: 5' fluorescent label
T4 sequence: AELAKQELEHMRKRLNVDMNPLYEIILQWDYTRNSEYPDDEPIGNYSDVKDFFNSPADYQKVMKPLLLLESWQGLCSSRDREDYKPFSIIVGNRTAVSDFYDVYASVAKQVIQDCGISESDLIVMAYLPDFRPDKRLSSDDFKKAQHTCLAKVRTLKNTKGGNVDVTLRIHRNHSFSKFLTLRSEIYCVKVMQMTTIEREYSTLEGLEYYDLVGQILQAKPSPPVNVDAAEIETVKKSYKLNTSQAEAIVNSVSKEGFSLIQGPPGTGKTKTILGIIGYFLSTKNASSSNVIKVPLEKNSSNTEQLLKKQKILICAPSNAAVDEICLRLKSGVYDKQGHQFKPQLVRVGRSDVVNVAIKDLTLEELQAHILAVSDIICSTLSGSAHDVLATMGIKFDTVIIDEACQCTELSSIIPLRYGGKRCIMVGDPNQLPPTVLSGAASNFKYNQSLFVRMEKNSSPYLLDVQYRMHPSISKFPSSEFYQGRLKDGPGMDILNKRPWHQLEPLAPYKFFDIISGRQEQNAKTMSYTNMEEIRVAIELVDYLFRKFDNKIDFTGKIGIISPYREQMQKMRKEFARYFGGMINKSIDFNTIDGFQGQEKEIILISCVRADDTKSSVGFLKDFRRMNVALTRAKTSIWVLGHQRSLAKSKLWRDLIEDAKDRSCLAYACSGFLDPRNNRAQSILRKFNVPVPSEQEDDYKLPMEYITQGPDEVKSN

Sen1Hel P1622L = target: T5, Sen1Hel P1622L (Saccharomyces cerevisiae, UniProt Q00416 1095-1904, P1622L); assay: fluorescence anisotropy; 2 mM Mg2+; FA: 20 mM Hepes pH 7.5, 300 mM NaCl, 2 mM MgCl2, 1 mM DTT, 20 C, 10 nM RNA; EMSA: 2 nM RNA, 10-160 nM protein (buffer not in the material); conditions: protein: recombinant; tags: C-terminal CPD-His8 removed by 3C; label: 5' fluorescein
T5 sequence: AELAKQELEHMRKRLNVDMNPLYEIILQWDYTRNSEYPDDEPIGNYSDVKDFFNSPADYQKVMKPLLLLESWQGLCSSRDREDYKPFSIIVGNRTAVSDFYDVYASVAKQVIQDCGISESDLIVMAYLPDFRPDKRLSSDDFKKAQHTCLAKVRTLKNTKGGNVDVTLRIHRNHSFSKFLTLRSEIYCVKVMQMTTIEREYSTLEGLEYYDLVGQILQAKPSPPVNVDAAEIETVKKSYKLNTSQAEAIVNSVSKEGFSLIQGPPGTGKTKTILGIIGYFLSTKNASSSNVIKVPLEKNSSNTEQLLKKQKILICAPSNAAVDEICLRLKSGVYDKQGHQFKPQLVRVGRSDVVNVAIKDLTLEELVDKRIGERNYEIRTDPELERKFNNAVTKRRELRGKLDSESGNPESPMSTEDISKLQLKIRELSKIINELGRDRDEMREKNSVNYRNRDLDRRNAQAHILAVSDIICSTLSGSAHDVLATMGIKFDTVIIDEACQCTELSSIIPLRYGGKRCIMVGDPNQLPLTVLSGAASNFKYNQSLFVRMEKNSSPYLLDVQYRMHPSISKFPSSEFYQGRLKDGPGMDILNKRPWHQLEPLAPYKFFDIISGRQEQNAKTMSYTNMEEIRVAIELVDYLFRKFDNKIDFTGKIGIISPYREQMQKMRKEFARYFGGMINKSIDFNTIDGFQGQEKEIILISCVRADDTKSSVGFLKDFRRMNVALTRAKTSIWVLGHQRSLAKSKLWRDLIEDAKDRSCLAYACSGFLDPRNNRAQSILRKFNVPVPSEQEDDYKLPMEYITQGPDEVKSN

Sen1Hel (wild type) [3] = target: T3, Sen1Hel (wild type); assay: as above; conditions: protein: recombinant; tags: C-terminal CPD-His8 removed by 3C; label: 5' fluorescein
Sen1Hel N1413S = target: T6, Sen1Hel N1413S (Saccharomyces cerevisiae, UniProt Q00416 1095-1904, N1413S); assay: fluorescence anisotropy; 2 mM Mg2+; text says impaired; FA: 20 mM Hepes pH 7.5, 300 mM NaCl, 2 mM MgCl2, 1 mM DTT, 20 C, 10 nM RNA; EMSA: 2 nM RNA, 10-160 nM protein (buffer not in the material); conditions: protein: recombinant; tags: C-terminal CPD-His8 removed by 3C; label: 5' fluorescein
T6 sequence: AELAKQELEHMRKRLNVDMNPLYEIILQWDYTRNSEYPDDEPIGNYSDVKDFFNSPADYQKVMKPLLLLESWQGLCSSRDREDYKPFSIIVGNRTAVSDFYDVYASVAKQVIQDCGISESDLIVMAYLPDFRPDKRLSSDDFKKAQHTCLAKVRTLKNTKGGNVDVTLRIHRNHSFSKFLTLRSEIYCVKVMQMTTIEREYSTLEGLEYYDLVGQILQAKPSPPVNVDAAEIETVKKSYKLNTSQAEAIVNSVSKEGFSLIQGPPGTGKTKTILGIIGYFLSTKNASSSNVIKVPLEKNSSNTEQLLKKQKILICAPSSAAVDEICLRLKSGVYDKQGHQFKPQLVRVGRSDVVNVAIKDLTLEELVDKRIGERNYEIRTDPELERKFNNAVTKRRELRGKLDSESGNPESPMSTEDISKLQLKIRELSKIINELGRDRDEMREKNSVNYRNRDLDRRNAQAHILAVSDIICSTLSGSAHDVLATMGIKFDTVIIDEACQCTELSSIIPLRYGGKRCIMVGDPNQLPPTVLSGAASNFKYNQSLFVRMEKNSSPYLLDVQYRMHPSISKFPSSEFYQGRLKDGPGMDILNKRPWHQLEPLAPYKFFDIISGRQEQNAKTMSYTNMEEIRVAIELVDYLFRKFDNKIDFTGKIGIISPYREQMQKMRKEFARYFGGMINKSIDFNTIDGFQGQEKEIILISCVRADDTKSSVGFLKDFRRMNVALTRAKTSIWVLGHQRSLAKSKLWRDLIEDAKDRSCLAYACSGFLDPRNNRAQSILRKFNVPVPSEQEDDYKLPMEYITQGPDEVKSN

Molecule: Nc1ncnc2c1ncn2[C@@H]1O[C@H](COP(=O)(O)OP(=O)(O)O)[C@@H](O)[C@H]1O [ADP]
- X-ray crystal structure, 1.8 A [1]: We crystallized Sen1Hel in the presence of ADP and determined the structure

Molecule: Nc1ncnc2c1ncn2[C@@H]1O[C@H](COP(=O)(O)OP(=O)(O)OP(=O)(O)O)[C@@H](O)[C@H]1O [ATP]
- ATP hydrolysis, alpha-32P-ATP, thin-layer chromatography (Sen1Hel): Sen1Hel showed levels of RNA‐dependent ATPase activity similar to those of full‐length Sen1

Molecule: UUCAUUUCAGACCAGCACCCACUCACUACAACUCACGACCAGGC (ssRNA) [DL3316 44-mer RNA]
- binding result (Sen1Hel (wild type) [2]): binds
- binding result (Sen1Hel deltaLP): binds

Molecule: UUUCUAUUUAUUUUG (ssRNA) [ARE 15-mer AU-rich RNA]
- Kd (Sen1Hel P1622L): ~6.4 µM
- Kd (Sen1Hel (wild type) [3]): ~0.6 µM
- binding result (Sen1Hel N1413S): no binding
